According to patent US20260151494A1 (ARO BIOTHERAPEUTICS, published 2026):
Where a chain is given by its changes, count along the chain named. Values belong to the binder of their own block, whether it stands above or below them.

What was measured:
[1] = target: T1, human apical domain of CD71 (human, UniProt P02786 189-383, limits assumed); test: primary ELISA; signal over HSA control; on RLU: test concentration or dose not given here
T1 construct: domain: apical domain

[2] = target: T2, human CD71 extracellular domain (human, UniProt P02786 89-760); test: primary ELISA; signal over HSA control; on RLU: test concentration or dose not given here
T2 construct: also called hCD71; CD71-ECD

[3] = target: T1, human apical domain of CD71; test: primary ELISA; further: test concentration or dose not given here
[4] = target: T2, human CD71 extracellular domain; test: primary ELISA; further: test concentration or dose not given here
[5] = target: T3, human CD71 extracellular domain (human, UniProt P02786 89-760, biotinylated); test: primary ELISA, RLU over HSA
T3 construct: also called hCD71; CD71-ECD

[6] = target: T4, apical domain of human CD71 (human, UniProt P02786 189-383, limits assumed); test: primary ELISA, RLU over HSA
T4 construct: domain: apical domain; Screen 4 panned on human apical domains, the ELISA text says only 'apical domain'

[7] = target: T3, human CD71 extracellular domain; test: primary ELISA; further: test concentration or dose not given here
[8] = target: T4, apical domain of human CD71; test: primary ELISA; further: test concentration or dose not given here

T1 sequence (P02786 189-383 limits assumed): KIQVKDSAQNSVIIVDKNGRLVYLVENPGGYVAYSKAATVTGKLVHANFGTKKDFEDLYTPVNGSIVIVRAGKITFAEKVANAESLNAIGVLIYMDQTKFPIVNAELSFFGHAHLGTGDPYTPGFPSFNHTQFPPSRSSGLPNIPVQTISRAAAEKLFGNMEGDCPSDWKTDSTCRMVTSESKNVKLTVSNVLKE
T4 sequence (P02786 189-383 limits assumed): as above
T2 sequence (P02786 89-760): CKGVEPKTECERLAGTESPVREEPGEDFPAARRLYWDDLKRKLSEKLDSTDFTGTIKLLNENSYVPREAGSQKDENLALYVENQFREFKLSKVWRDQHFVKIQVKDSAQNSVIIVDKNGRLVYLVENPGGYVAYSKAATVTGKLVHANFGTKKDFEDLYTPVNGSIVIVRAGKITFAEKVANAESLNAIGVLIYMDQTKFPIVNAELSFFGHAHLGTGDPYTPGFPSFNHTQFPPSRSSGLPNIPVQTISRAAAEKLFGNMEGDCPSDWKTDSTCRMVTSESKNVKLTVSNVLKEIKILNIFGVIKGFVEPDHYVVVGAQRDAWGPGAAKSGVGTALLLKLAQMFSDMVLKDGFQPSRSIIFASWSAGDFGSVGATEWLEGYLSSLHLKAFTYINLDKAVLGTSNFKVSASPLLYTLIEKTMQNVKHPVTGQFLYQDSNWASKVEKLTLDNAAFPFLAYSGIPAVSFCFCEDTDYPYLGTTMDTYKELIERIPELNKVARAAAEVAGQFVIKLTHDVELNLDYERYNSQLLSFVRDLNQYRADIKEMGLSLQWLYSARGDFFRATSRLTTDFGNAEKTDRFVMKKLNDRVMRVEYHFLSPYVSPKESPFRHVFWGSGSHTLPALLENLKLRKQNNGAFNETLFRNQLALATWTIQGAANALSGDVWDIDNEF
T3 sequence (P02786 89-760): as above

- Apical domain:HSA [1]: 478 ratio
- hCD71:HSA [2]: 185 ratio
- RLU [3]: 3.68e+06 RLU
- RLU [4]: 1.42e+06 RLU
B1: CD71-binding FN3 domain SEQ ID NO 406 (designed binder)
chain: MLPAPKNLVVSRVTEDSARLSWTAPDAAFDSFFIDYDESLDSGEAIVLTVPGSERSYDLTGLKPGTEYNVTIQGVKGGFPSSPLEAAFTT

- Apical domain:HSA [1]: 217 ratio
- hCD71:HSA [2]: 172 ratio
- RLU [3]: 6.23e+06 RLU
- RLU [4]: 4.92e+06 RLU
B2: CD71-binding FN3 domain SEQ ID NO 442 (designed binder)
chain: MLPAPKNLVVSRVTEDSARLSWTAPDAAFDSFEIWYAEWRQVGEAIVLTVPGSERSYDLTGLKPGTEYNVDIHGVKGGKVSWPLSAISTT

- Apical domain:HSA [1]: 89 ratio
- hCD71:HSA [2]: 48 ratio
- RLU [3]: 5.12e+06 RLU
- RLU [4]: 2.8e+06 RLU
B3: CD71-binding FN3 domain SEQ ID NO 444 (designed binder)
chain: MLPAPKNLVVSRVTEDSARLSWTAPDAAFDSFEIDYVEFIFTGEAIGLIVPGSERSYDLTGLKPGTKYWVTIAGVKGGEWSTPLQAFFTT

- hCD71:HSA [5]: 178
- Apical domain:HSA [6]: 245
- RLU [7]: 3.52e+06 RLU
- RLU [8]: 4.83e+06 RLU
B4: CD71-binding FN3 domain of SEQ ID NO: 507 (designed binder)
chain: MLPAPKNLVVSRVTEDSARLSWTAPDAAFDSFFIGYLEPQPPGEAIHLLVPGSERSYDLTGLKPGTEYNVTIQGVKGGFPSMPLSAIFTT

- hCD71:HSA [5]: 74
- Apical domain:HSA [6]: 74
- RLU [7]: 4.73e+06 RLU
- RLU [8]: 4.76e+06 RLU
B5: CD71-binding FN3 domain of SEQ ID NO: 448 (designed binder)
chain: B4 chain with H47D, L49Y, S85Y, I87R

- hCD71:HSA [5]: 162
- Apical domain:HSA [6]: 178
- RLU [7]: 4.52e+06 RLU
- RLU [8]: 4.97e+06 RLU
B6: CD71-binding FN3 domain of SEQ ID NO: 472 (designed binder)
chain: B4 chain with H47E, L49Y, M82L, S85V, I87T

- hCD71:HSA [5]: 206
- Apical domain:HSA [6]: 373
- RLU [7]: 2.66e+06 RLU
- RLU [8]: 4.83e+06 RLU
B7: CD71-binding FN3 domain of SEQ ID NO: 479 (designed binder)
chain: B4 chain with H47N, L49W, M82T, S85F, I87G

- hCD71:HSA [5]: 226
- Apical domain:HSA [6]: 227
- RLU [7]: 4.18e+06 RLU
- RLU [8]: 4.2e+06 RLU
B8: CD71-binding FN3 domain of SEQ ID NO: 454 (designed binder)
chain: B4 chain with H47N, L49T, M82Y, S85Q, I87S

- hCD71:HSA [5]: 69
- Apical domain:HSA [6]: 66
- RLU [7]: 6.75e+06 RLU
- RLU [8]: 6.51e+06 RLU
B9: CD71-binding FN3 domain of SEQ ID NO: 449 (designed binder)
chain: B1 chain with F33Y, D35A, D37Q, S39L, L40S, D41L, S42W, S82L, E85A, A87Q

- hCD71:HSA [5]: 129
- Apical domain:HSA [6]: 151
- RLU [7]: 5.23e+06 RLU
- RLU [8]: 6.08e+06 RLU
B10: CD71-binding FN3 domain of SEQ ID NO: 451 (designed binder)
chain: B4 chain with H47G, M82I, S85V, I87D

- hCD71:HSA [5]: 142
- Apical domain:HSA [6]: 147
- RLU [7]: 4.95e+06 RLU
- RLU [8]: 5.12e+06 RLU
B11: CD71-binding FN3 domain of SEQ ID NO: 453 (designed binder)
chain: B4 chain with P25Q, H47A, M82H, I87S

- hCD71:HSA [5]: 152
- Apical domain:HSA [6]: 136
- RLU [7]: 5.86e+06 RLU
- RLU [8]: 5.25e+06 RLU
B12: CD71-binding FN3 domain of SEQ ID NO: 447 (designed binder)
chain: B4 chain with H47Y, L49Y, M82Y, S85T, I87Q

- hCD71:HSA [5]: 27
- Apical domain:HSA [6]: 45
- RLU [7]: 1.18e+06 RLU
- RLU [8]: 2e+06 RLU
B13: CD71-binding FN3 domain of SEQ ID NO: 467 (designed binder)
chain: B4 chain with H47Q, M82D, S85V, I87Y, F88S

- hCD71:HSA [5]: 302
- Apical domain:HSA [6]: 289
- RLU [7]: 4.5e+06 RLU
- RLU [8]: 4.31e+06 RLU
B14: CD71-binding FN3 domain of SEQ ID NO: 456 (designed binder)
chain: B4 chain with H47A, L49Y, M82H, S85Q, I87H

- hCD71:HSA [5]: 129
- Apical domain:HSA [6]: 138
- RLU [7]: 3.86e+06 RLU
- RLU [8]: 4.15e+06 RLU
B15: CD71-binding FN3 domain of SEQ ID NO: 465 (designed binder)
chain: B4 chain with H47D, L49Y, M82E, S85W, I87D

- hCD71:HSA [5]: 79
- Apical domain:HSA [6]: 152
- RLU [7]: 2.47e+06 RLU
- RLU [8]: 4.74e+06 RLU
B16: CD71-binding FN3 domain of SEQ ID NO: 470 (designed binder)
chain: B4 chain with H47T

- hCD71:HSA [5]: 73
- Apical domain:HSA [6]: 75
- RLU [7]: 5.4e+06 RLU
- RLU [8]: 5.56e+06 RLU
B17: CD71-binding FN3 domain of SEQ ID NO: 469 (designed binder)
chain: B4 chain with L49Y, M82L, S85V, I87T

- hCD71:HSA [5]: 140
- Apical domain:HSA [6]: 160
- RLU [7]: 4.94e+06 RLU
- RLU [8]: 5.68e+06 RLU
B18: CD71-binding FN3 domain of SEQ ID NO: 464 (designed binder)
chain: B4 chain with H47Q, L49F, M82T, S85V, I87S

- hCD71:HSA [5]: 136
- Apical domain:HSA [6]: 154
- RLU [7]: 3.05e+06 RLU
- RLU [8]: 3.47e+06 RLU
B19: CD71-binding FN3 domain of SEQ ID NO: 483 (designed binder)
chain: B4 chain with H47T, L49V, M82D, S85V, I87S

- hCD71:HSA [5]: 37
- Apical domain:HSA [6]: 42
- RLU [7]: 4.75e+06 RLU
- RLU [8]: 5.51e+06 RLU
B20: CD71-binding FN3 domain of SEQ ID NO: 446 (designed binder)
chain: B4 chain with H47Q, L49F, M82L, S85I, I87Y

- hCD71:HSA [5]: 247
- Apical domain:HSA [6]: 295
- RLU [7]: 2.23e+06 RLU
- RLU [8]: 2.66e+06 RLU
B21: CD71-binding FN3 domain of SEQ ID NO: 482 (designed binder)
chain: B4 chain with V9I, L49Q, M82N, S85H, I87E

- hCD71:HSA [5]: 51
- Apical domain:HSA [6]: 53
- RLU [7]: 5.54e+06 RLU
- RLU [8]: 5.78e+06 RLU
B22: CD71-binding FN3 domain of SEQ ID NO: 457 (designed binder)
chain: B4 chain with H47V, M82A, S85V, I87T

- hCD71:HSA [5]: 297
- Apical domain:HSA [6]: 335
- RLU [7]: 1.75e+06 RLU
- RLU [8]: 1.98e+06 RLU
B23: CD71-binding FN3 domain of SEQ ID NO: 486 (designed binder)
chain: B4 chain with K6E, P25L, H47S, F79I, P80A, M82E, I87A

- hCD71:HSA [5]: 312
- Apical domain:HSA [6]: 279
- RLU [7]: 3.04e+06 RLU
- RLU [8]: 2.72e+06 RLU
B24: CD71-binding FN3 domain of SEQ ID NO: 474 (designed binder)
chain: B4 chain with H47G, L49A, M82E, S85I, I87D

- hCD71:HSA [5]: 191
- Apical domain:HSA [6]: 199
- RLU [7]: 2.5e+06 RLU
- RLU [8]: 2.61e+06 RLU
B25: CD71-binding FN3 domain of SEQ ID NO: 459 (designed binder)
chain: B4 chain with G35R, L49S, S85Y

- hCD71:HSA [5]: 101
- Apical domain:HSA [6]: 94
- RLU [7]: 3.46e+06 RLU
- RLU [8]: 3.21e+06 RLU
B26: CD71-binding FN3 domain of SEQ ID NO: 475 (designed binder)
chain: B4 chain with H47T, L49Y, M82I, I87E

- hCD71:HSA [5]: 88
- Apical domain:HSA [6]: 91
- RLU [7]: 2.91e+06 RLU
- RLU [8]: 3.03e+06 RLU
B27: CD71-binding FN3 domain of SEQ ID NO: 473 (designed binder)
chain: B4 chain with H47D, L49W, M82L, I87S

- hCD71:HSA [5]: 66
- Apical domain:HSA [6]: 86
- RLU [7]: 2.47e+06 RLU
- RLU [8]: 3.23e+06 RLU
B28: CD71-binding FN3 domain of SEQ ID NO: 485 (designed binder)
chain: B4 chain with L49W, M82L, S85L, I87K

- hCD71:HSA [5]: 166
- Apical domain:HSA [6]: 253
- RLU [7]: 4.1e+06 RLU
- RLU [8]: 6.26e+06 RLU
B29: CD71-binding FN3 domain of SEQ ID NO: 450 (designed binder)
chain: B4 chain with H47S, L49F, M82E, S85A, I87K

- hCD71:HSA [5]: 117
- Apical domain:HSA [6]: 166
- RLU [7]: 3.77e+06 RLU
- RLU [8]: 5.35e+06 RLU
B30: CD71-binding FN3 domain of SEQ ID NO: 461 (designed binder)
chain: B4 chain with H47G, L49F, A86P

- hCD71:HSA [5]: 88
- Apical domain:HSA [6]: 71
- RLU [7]: 5.24e+06 RLU
- RLU [8]: 4.23e+06 RLU
B31: CD71-binding FN3 domain of SEQ ID NO: 452 (designed binder)
chain: B4 chain with L49Q, M82I, S85V, I87Q

- hCD71:HSA [5]: 262
- Apical domain:HSA [6]: 215
- RLU [7]: 4.15e+06 RLU
- RLU [8]: 3.4e+06 RLU
B32: CD71-binding FN3 domain of SEQ ID NO: 476 (designed binder)
chain: B4 chain with L49Q, M82I, S85I, I87V

- hCD71:HSA [5]: 56
- Apical domain:HSA [6]: 61
- RLU [7]: 5.39e+06 RLU
- RLU [8]: 5.9e+06 RLU
B33: CD71-binding FN3 domain of SEQ ID NO: 478 (designed binder)
chain: B4 chain with L49Y, M82V, S85I, I87K

- hCD71:HSA [5]: 816
- Apical domain:HSA [6]: 803
- RLU [7]: 3.71e+06 RLU
- RLU [8]: 3.65e+06 RLU
B34: CD71-binding FN3 domain of SEQ ID NO: 481 (designed binder)
chain: B4 chain with H47T, L49Y, L59M, M82L, S85Q, I87H

- hCD71:HSA [5]: 143
- Apical domain:HSA [6]: 148
- RLU [7]: 2.69e+06 RLU
- RLU [8]: 2.8e+06 RLU
B35: CD71-binding FN3 domain of SEQ ID NO: 460 (designed binder)
chain: B4 chain with H47S, L49Y, L59Q, M82D, I87R

- hCD71:HSA [5]: 76
- Apical domain:HSA [6]: 88
- RLU [7]: 2.83e+06 RLU
- RLU [8]: 3.28e+06 RLU
B36: CD71-binding FN3 domain of SEQ ID NO: 462 (designed binder)
chain: B4 chain with L49Q, M82V, S85H, I87R
